Test: label from the status in PepcDB records

## MNENEQKAGSVADQKSKIRERYKGIDPDELDVIPALPQEDIFAVENEQRVAVYARVSTDDPRQTSSYELQKNHYHDVISKSPNWKLVQIYADEGISGTSLQHRDQFKLMIEDCKKGQIDLIVTKSVSRFARNVVDCIGYVRELLSLPHPVGVFFETERLNTFDPKSEMVLSFMATLAQEESHTKSEIMNASIEMRFRRGIFLTPILLGYDHDEDGNLIINEGEAKIVKLIFMMYLNGCTCQEIADTLTELGCETKKGNTVWSPGSILQILQNERHCGDVLAHKTYTPNYLNHKSKKNMQNRPQYRKRDHHEAIISRDDFIAVQRLISNAKYGNKGILPQLKVIPGGVLKGFVSINPRWAGFKETDYMNASSSVYDGTEQSGPSSGHVEVKSGEFDLRGYEIARSQFFDSTDRITVTFSQGDIRFSAPAVRKLDSTLVELLIHPKKLVFAVRNAGKDCRNAMQWSKKKDGKNSPREISGTAFLPTLYSLLGWNDDCRYRITGVKRGSGNDAVLLFNLSEPEIFIPNDMVGAPDADPAVKPFTDNQQRNVRAYPPDWADTFGSNYYSHAQAEELAGFTGRKDPDTSHAPVTYNDTDIQVTSKNDIEKNIKQIMSDMKENTDEHTDKR
  protein production: failed

## MMDSIAGPIQVLSRQFPNAQQGKGAALNHAFQIVLTDAEKGHYSWDQVLVGVVDADGFFSENIVNELTAVFTDTTVCAAQTRIKMKDVTNFMFIAQDVEFFTINNFIQKARRATKTIGLGGNGQFFRLSMITEHLGYQPWGNALLDDYELTIKLMLKELSIAYIDEAFMAQEALRDVKRFIRQRSRWVQGNLDCLAYLPRVIKSKSLTLRQKCGIYYFLAQPFINLVAGMLVFVLTGLQLQHLYRLGFSLSLVISFVLAVSISLVFGIFFTINYYRELKNFQLKVPAKLGLIILPFTISYMYLILFVSVVMAYYRFIKGNSTWIKTERN
  protein production: failed

## GTVSWNLREMLAHAEETRKLMPICMDVRAIMATIQRKYKGIKIQEGIVDYGVRFFFYTSKEPVASIITKLNSLNEPLVTMPIGYVTHGFNLEEAARCMRSLKAPAVVSVSSPDAVTTYNGYLTSSSKTSEEHFVETVSLAGSYRDWSYSGQRTELGVEFLKRGDKIVYHTLESPVEFHLDGEVLSLDKLKSLLS
  protein production: not failed

## TDPDADRLGVEIRQPDGSYKNLSGNQIGAIIAKYILEAHKTAGTLPENAALAKSIVSTELVTKIAESYGATMFNVLTGFKFIAEKIQEFEEKHNHTYMFGFEESFGYLIKPFVRDKDAIQAVLLVAEIAAYYRSRGLTLADGIDEIYKEYGYFAE
  protein production: failed

## MLNKTASYSEIEMSVVVPKDSKITNIEAVSKLAAPVKNDTSNITDLIEHIKSEKGISITPQKTDSYQDAYNRIKSGDSQAMVLNNAYVSLIELSTPDFKSQIKTIYTYKIKKKINRKNTNHKEGVFNIYISGIDTFGSISTVSRSDVNIIMTVNTNTHKVLLTTTPRDAYVKIPDGGGNQYDKLTHAGLYGVETSMKTLENLYDINLDYYARINFSSFLKLIDLLGGVTVYNDQAFTSKHGNFDFPVGQVTLNSEQALGFVRERYSLQGGDNDRGRNQEKVIAAIINKLASSQSVTKLNSITSQLQTSVQTNMTIDNINDLINNQLSTGQRFTVESQALTGHGSTGELPSYAMPGAQLYMMSIDQSSLSNAKSKIKNTMEELEHHHHHH
  protein production: not failed

## MANDKRTSPPTPRQPAKGGAAGKRQGHAAEGTRKPRARGEERKEKPADGRSATALTANERREIDDKQPPRAAVLHEVIRVQGEHELQRTLAALWWSAVAAGLTIGLSLMGMGLFRAALPEQEWAIIVSSFGYPMGFLAVILARQQLFTENTLTAVLPVMTEPTLEKAWQLLRLWSVVLFGNIVGTLLFAWAVLHLPIFNEAADAAFLEIGREVMHNDLAQMFAKGIVSGWMIATMVWLIPAAEGAKIWIIAMVTYLMALGSFTHIVVGSAEVGYLAFAGEIGWAEFLLKFALPTLGGNIVGGSLIFALISHAQIRSEG
  protein production: failed

## MKSKFLTMKLILGALVLSFSCACSSSNSEEAMPQTAIGRQLVESGMANDVTLDNESVVRDGIKLNELAFKTFGESQHIFVATIDLNELTFTPATKDDKNVPATGPESSAPLPIHAFAAEANGKTVWLGVNGDYYADNPRRVMGLFYKDGVCINSQYFEGHDEVLYQLKNGETYVGQADEALAHEANLLHALGGYGLLVKDGVVQNFYEEMGDLQNTHPRTSVGLSQDRKTMYVFVVDGRRKDSFFALGLTLPHLATMMKAVGCYNAINLDGGGSTTLIIRKVNDGGKPTFPILNTPADDRVPRKVTNSMLIIEKK
  protein production: failed

## MQKQAELYRGKAKTVYSTENPDLLVLEFRNDTSAGDGARIEQFDRKGMVNNKFNYFIMSKLAEAGIPTQMERLLSDTECLVKKLDMVPVECVVRNRAAGSLVKRLGIEEGIELNPPLFDLFLKNDAMHDPMVNESYCETFGWVSKENLARMKELTYKANDVLKKLFDDAGLILVDFKLEFGLYKGEVVLGDEFSPDGSRLWDKETLEKMDKDRFRQSLGGLIEAYEAVARRLGVQLD
  protein production: failed

## MSSHNMTEVLVGGAVLAAALTFGIYASQATGLSRGTGGYELAASFRSLEGVTVGTDVRLAGVKIGTVTGVDLNPESYRADTRFTVSEGIQIPDDSAAVISSEGLLGGNFLEIMPGGSAFYFEPGDVIDDTQGAVSLISLLVKFVAGDGSGELEHHHHHH
  protein production: not failed

## MKNLVVVDHPLIKHKLTIMRDKNTGPKEFRELLREITLLLAYEATRHLKCEEVEVETPITKTIGYRINDKDIVVVPILRAGLVMADGILELLPNASVGHIGIYRDPETLQAVEYYAKLPPLNDDKEVFLLDPMLATGVSSIKAIEILKENGAKKITLVALIAAPEGVEAVEKKYEDVKIYVAALDERLNDHGYIIPGLGDAGDRLFRTK
  protein production: not failed

## MLILVILLVLVALAFDFINGFHDAANSIATVVSTRVLSPLVAVGWAAFFNFISAMPVLWGAELKVAATMGKGIVHFEQLKAGGISLVLMVVFAALMGAIVWNLLTWWWGLPSSSSHALAGGMIGASLPPLGFAGLIPSGILKIAAFIVLSPLIGMVLGSAMMVATAWVVRKNTPARVDRWFRRLQLVSAAIFSYSHGTNDAQKVMGIISVILYGTIWADRAAMTPGHFPVPFWVVLSCHAAIGLGTMFGGWRIVRTMGHNLTKLQPIGGFCAETGGGVTILALAHFGIPVSTTHTITGAIVGVGSTKGTRAVRWGVAGRIIWAWIFTIPAAAIVAGVIFLVTRAIVSVIGVG
  protein production: failed

## MQVSVETTQGLGRRVTITIAADSIETAVKSELVNVAKKVRIDGFRKGKVPMNIVAQRYGASVRQDVLGDLMSRNFIDAIIKEKINPAGAPTYVPGEYKLGEDFTYSVEFEVYPEVELQGLEAIEVEKPIVEVTDADVDGMLDTLRKQQATWKEKDGAVEAEDRVTIDFTGSVDGEEFEGGKASDFVLAMGQGRMIPGFEDGIKGHKAGEEFTIDVTFPEEYHAENLKGKAAKFAINLKKVEERELPELTAEFIKRFGVEDGSVEGLRAEVRKNMERELKSAIRNRVKSQAIEGLVKANDIDVPAALIDSEIDVLRRQAAQRFGGNEKQALELPRELFEEQAKRRVVVGLLLGEVIRTNELKADEERVKGLIEEMASAYEDPKEVIEFYSKNKELMDNMRNVALEEQAVEAVLAKAKVTEKETTFNELMNQQA
  protein production: not failed

## QKVEFRKRMEKEVSDFIQDSGQIKKKFQPMNKIERSILHDVVEVAGLTSFSFGEDDDCRYVMIFKKEFAPSDEELDSYRRG
  protein production: not failed

## MNKGNTLDSIPTDLILEIFSRLSAKSVGRLRCLSKLWRKGEWFFFSSLQPQNLYEKPFLVVAADFHMKFSEDMSHDIYSYASGLIYFPKMLIENEKSGAIRVICNPITGQYAILPKLITLQAARSFLGFDPIDNQFKVLLVNNDIVNNDMDILTLGIGELMSEKLKFIEAKCFFALDDVQLINYKGKLGGISWNNHEVAPVELSMWVLEDVEKQEWSKNVYILPKNVVPNNWLHAAGVTVEGDIVFSEAVVSNPFDVFYFNPEKNTLQHVETHCNHEVFDDENLVNIFVDHVEDLKFDVMKPTYAATSIRPTEQKHKPTSTETSMSRKDHQVRTIDQPQQDRCTFESINNKFDVMCLLDDD
  protein production: not failed

## MTDTLLVTSTNAGTGKTAVSLALARLAGDRDRTVGYMKPKGTRLQSNVGKTLDADPLLARDLLDLDAEIHDLEPVVYSPTFIQGAVRGREDSANLADRVRDAYDELATDRDVMLVEGAGTPTTGGIVDLTDGDIAALLDARAIVVADYTGPSDVDDVLAAADALGDRCAGVVFNAVADAVYDDVESEVTPFLESQGIPVLGVLPVERDLAGVTVDDLASELGATVLTEDTATTDAIVERFLVGAMSSESALSHFRRTKDAAVITGGDRADIQTAALDAPGVQCLVLTGGHRPSGAVLGKATDAGVPVLSVDADTLTTLERAEELVRDGRVRDEHTVDVMQRLLHDHADTDRLLD
  protein production: failed

## MKYLPLYPILARYPFLRIASRVFSFNIEDELRKFLDTVEAAKRIVDKAIDGRVEYDRFTDESEFFCLGCEENCYDCQKRGTLEGCDLCMGCFENCSLYYPREAVERFYTNAKLSLLTYIASRMIVSAMEDWVRMRYAVNEASYYSRLLREDVEESGKEPIVRLVAIDLGAKLKGWKMHVSTFVRVSARIKDDKWRLVNRKLRNGWVETTKAEVLRGLEELLRMKLFEKVPVSEAVSEAVRELSRKAKRESEKFAMDLGEVDLNCLPPCMREILSELQRGMNIPHTARFAITSFLLNIGMTVDEIIALFKSAPDFDDEKTRYQVEHIAGERGKGAEYTSPSCDTMRTYSNCVADCRVSHPLIYYKKCKSKSLEHHHHHH
  protein production: not failed

## MEITDPGDFRQRIETSFARQGVVQAINAEISRIEHRLVEIELPFHEKLTQQHGILHAGVIAAGLDTACTYAAYTIIEPEASLLTIEFKVNLMSPGRGERFLFRGEIIKPGNNLIVADGRAYALSDGPAKLIASMTGTMMVVKGLEHHHHHH
  protein production: not failed

## DNMEAVKTFNSELYSLNDYKPPISKAKMTQITKAAIKAIKFYKHVVQSVEKFIQKCKPEYKVPGLYVIDSIVRQSRHQFGQEKDVFAPRFSNNIISTFQNLYRCPGDDKSKIVRVLNLWQKNNVFKSEIIQPLLDMAAG
  protein production: not failed

## MHATDQTFQILLSQLLEKVEDRCPECGSEQYVWQQKNKDGTERCAPTCWSCGYKMLKKHEQQANQQRSQESFMARTQKFFHQGSLIADDALRQCRLTNYQTTELETRQAKERALAAVSAIVEGKPIHVIFSGKPGVGKSHLAISILVEVLERSAYQKYCLFVSYSELLEKLKMSMNESAKSQAKAQAYITRMKKADVLVLDDLGAELGIKNKVSTDFNNDILNRILEARQNKATIFTTNFSGKQLVEAYGTRIISRLMKHANGYVFQYKDTTDKRMRSVKLEHHHHHH
  protein production: failed

## MLKTPYYLIDKRALLQNLEVIRRIRERSGAKVLLALKCFATWSVFDLMREYMDGTTSSSLFEVRLGREKFGGETHAYSVAYAEDDIDDVVACADKIIFNSLSQLERYAPRASAIPRGLRLNPGISVSGYDLANPARPFSRLGETDLDRIAQAMPMIDGFMVHNNCENRDFTRFDALLTELEHRYGHLLGQINWISLGGGIHFTEPGYALDAFCDRLRRFSEQYGVQVYLEPGEAAITNTATLEVTVLDVMRNEKNLAIVDAATEAHMLDLLIYRMSARVQPDQGPHRYVIYGNSCLAGDVFGEFSFESPLQPGSRISIQDAAGYTMVKKNWFNGVRMPAIAIRELDGEIRLVREFGYQDYVDSLS
  protein production: failed

## MSSKMVKSSEIVGKLNLRAHQEGGFFAETFRDSSVFLSTSQLPPTFKVDRAVSTSIYFLLPSGSVSRLHRIPMAETWHFYLGEPLTVVELYDDGKLKFTCLGPDLFEGDQKPQYTVPPNVWFGSFPTKDVHFSQDGALLKAEARDSENHFSLVGCTCAPAFQFEDFELAKRSDLLSRFPQHESLITMLSYPE
  protein production: failed

From a protein production outcome set (Wang et al. 2014)
